According to the supplement of paper PMC9170038:

Tested on: MS2 coat protein
Assay: apparent KD of MS2 coat protein; designed switch direction (-1 OFF switch, 1 ON switch): -1; higher = weaker reporter binding
Summary of the method: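 Each step of the titration lasted 0.8–1.5 h at the lowest concentration and 10–20 min at the highest. The protein, SNAP-549-labelled MS2 coat protein, went from 0.7 or 1.5 nM doubling to 3 µM over RNA switches transcribed on Illumina chips by stalled E. coli RNA polymerase. Normalised cluster fluorescence was curve-fitted, and the per-design median over clusters is given as apparent KD.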

[1] = Eterna round: R95, input ligand: FMN 200 uM
[2] = Eterna round: R95, input ligand: microRNA oligo, concentration not stated
[3] = Eterna round: R95, input ligand: none
[4] = input ligand: microRNA oligo, concentration not stated

Sequence | apparent KD of MS2 coat protein [1] [nM] | apparent KD of MS2 coat protein [2] [nM] | apparent KD of MS2 coat protein [3] [nM] | apparent KD of MS2 coat protein (input ligand: FMN 200 uM) [nM] | apparent KD of MS2 coat protein (input ligand: none) [nM] | apparent KD of MS2 coat protein [4] [nM]
AAAUACAAGUAAAGAUCCUACAUGAGGAUCACCCAUGUGCUCGUUUUAUAAAGUACUAUCACGAAAGUGAUAGUACA [Sensor 3, v1 - 23] (puzzle: Sensor v3, turn-off variant 1) | 900 | 4.81 | 435 | – | – | –
AAAUAGCAUGAGGAUAUUGAACUGUAUACAGUACGAGAAGGCAUGACAUGAGGAUCACCCAUGUUUUGUUGGGA [EX6 #4] (Eterna round: R97, puzzle: Exclusion 6) | – | – | – | 119 | 49 | –
AAAUAGUGAGGAUAUUAGUUGUACGUCAAUAGACGUAUAAGUGAGAAGGCACAUGAGGAUCACCCAUGUUCCUG [Omei Ex4 Mod of Mat's R95 mod of Omei v8] (Eterna round: R97, puzzle: Exclusion 4) | – | – | – | 34.4 | 18.3 | –
AAAUAUCAUGUAGGAUAUGGAAGGCGAACCUAUCCAGAAGGACAUGAGGAUCACCCAUGUGCUGCGUUGUCCGUAGACAGCGCU [Ex NG1 #2] (Eterna round: R96, puzzle: Exclusion NG 1) | – | – | – | 88.2 | 31.4 | 21.1
AAAUCCCGAGGAUAUACAUGAGGAUCACCCAUGUAAUCAAACAGGGCAAAUUGAUCCGGUAGAAGGCGGACAAU [EX3 A.26] (Eterna round: R97, puzzle: Exclusion 3) | – | – | – | 26.6 | 13.5 | –
AAAUGACAUGAGGAUCACCCAUGUGGCCCUUAGACUCAUAUCGAGGAUAUCCAGGGCCGGGCCGUGGAGAAGGCGAAUUAAAAU [Edatriusti] (Eterna round: R96, puzzle: Exclusion NG 3) | – | – | – | 32.1 | 40.6 | 26.1
AAAUGCAGGUAAAGAUUCUACAUGAGGAUCACCCAUGUGCUCGUCUUAUAAAGUACUAUCACGAAAGUGAUAGUACA [Sensor 3, v1 - 41] (puzzle: Sensor v3, turn-off variant 1) | 27.6 | 268 | 26.6 | – | – | –
AAAUUAGCAAGUAGGUCCGACAUGAGGAUCACCCAUGUAAUCUAAUAUUACGCUGCAUGAGAGUGCGCUCGUCUUAA [Sensor-V1 #18] (Eterna round: R97, puzzle: Sensor, turn-off variant 1) | – | – | – | 196 | 220 | –
AAAUUGGUAGAGGAUAUCGCACAGGAAACACUGCGAGAAGGCUGCACAUGAGGAUCACCCAUGUUCAGUUGCGA [EX6 #38] (Eterna round: R97, puzzle: Exclusion 6) | – | – | – | 16.7 | 14.8 | –
AAAUUGGUAGAGGAUAUCGUACAGGAAACGGUGCGAGAAGGUUGCACAUGAGGAUCACCCAUGUUAAGUUGCGA [EX6 #45] (Eterna round: R97, puzzle: Exclusion 6) | – | – | – | 24.1 | 26.8 | –
AAAUUGUCAGGAUAUUGUUAGUUUAGUUGUUUGUAUUAGUUCGAGAAGGGACAUGAGGAUCACCCAUGUGAAAA [Ex4 #69] (Eterna round: R97, puzzle: Exclusion 4) | – | – | – | 38.3 | 41.5 | –
AAAUUGUGAGGAUAUUCGAUGAACACGGAGACGUGUUUAUCGGAGAAGGCACAUGAGGAUCACCCAUGUUCCUU [Mat - Exclusion 4 - JL Mod - D24] (Eterna round: R97, puzzle: Exclusion 4) | – | – | – | 80.4 | 16.3 | –
AAAUUGUGAGGAUAUUCGAUGAACUCGGAGACGAGUUUAUCGGAGAAGGCACAUGAGGAUCACCCAUGUUCCUU [Mat - Exclusion 4 - JL Mod - D23] (Eterna round: R97, puzzle: Exclusion 4) | – | – | – | 102 | 18.5 | –
AACAAGCUAGGAUAUACAUGAGGAUCACCCAUGUGCGACUGAUGUCCCGUGGUUGAGGGUAGAAGGAGCGAAAG [Qucelexe] (puzzle: Exclusion 3) | 239 | 210 | 226 | – | – | –
AACAAGCUUUAAAGAUCCCACAUGAGGAUCACCCAUGUGCUCGUCUUGUAACGUACUGUGACGAAAGUCACGGUACG [JL TOV1 3.28] (Eterna round: R97, puzzle: Sensor, turn-off variant 1) | – | – | – | 24.6 | 23.9 | –
AACACACAUGAGGAUCACCCAUGUGAGGAUAUCGUCGAGGAUGUAAUGCCAUCCGUGACGAGAAGGCACUUGGG [Exclusion 1 (Mod 3 solution 40 by Eternabot)] (Eterna round: R97, puzzle: Exclusion 1) | – | – | – | 58.8 | 211 | –
AACAGUACAGGAUAUACAUGAGGAUCACCCAUGUGAGAAUUAUGUGGCGUACCACAAAGUAGAAGGGUACUGGA [JL Maslow Revisted mod 3] (Eterna round: R96, puzzle: Exclusion 3) | – | – | – | 497 | 69.6 | 61.3
AACAGUCUAGAGGAUAUGCUGGAUUAAUAUCUGGCAGAAGGCUGGACAUGAGGAUCACCCAUGUAAAUACUACC [Omei Ex6 A1] (Eterna round: R97, puzzle: Exclusion 6) | – | – | – | 137 | 44.3 | –
AACCAGAUGAAACACAGGCACAUGAGGAUCACCCAUGUCUUAGAGCAUUCGGGUAAUCGGCUCGUUUUAAUUAGAAC [Eternabot (L1) Solution 22] (Eterna round: R97, puzzle: Sensor, turn-off variant 1) | – | – | – | 279 | 344 | –
AACCAGCGAGGAUAUGCUUGAGCUUGUUCUGGUCAGAAUCGACUUGAGGAUCACCCAAGUAGAAGGUGCUGACG [EX2 #60] (Eterna round: R97, puzzle: Exclusion 2) | – | – | – | 18.7 | 16.9 | –
AACCAGCGAGGAUAUGCUUGCGCGUGUUCUGGUUAUAAUCGACUUGAGGAUCACCCAAGUAGAAGGUGCUGGCG [EX2 #55] (Eterna round: R97, puzzle: Exclusion 2) | – | – | – | 360 | 147 | –
AACCAUGAGCGAGGAUAUCACCCUACGGAGUGGUGAGAAGGCGCAACAUGAGGAUCACCCAUGUACAAAUGCGGGACCCUUUUC [Zaorredila] (Eterna round: R96, puzzle: Exclusion NG 1) | – | – | – | – | – | 21.6
AACCCUAGGGUCAGACGCACAAGCUUUUUGCUCGUUUUAACAUGAGGAUCACCCAUGUCUAGUGGAUCUGAUCGGGC [Isreen] (puzzle: Sensor v3, turn-off variant 2) | 24.7 | 137 | 26.2 | – | – | –
